In the supplement of paper PMC10567573 one finds protein stability index data, which are given here for 94 variants.

First the molecules themselves.
B1: EMD (parent)
chain: YQSKGYNDDYYEESYFTTRTYGEP
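Note: lentivirally expressed fusions sorted by FACS into six bins by GFP to DsRed ratio, PSI derived from sequencing read proportions per bin multiplied by bin number.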

Variants of B1 are the subject of this data set. The data set can be described thus: protein stability index of a GFP-peptide fusion (GPS, HEK-293T) (PSI 1-6); higher = more stable. To be noted: c terminus: a fixed tail appended.
Take YQCKGYNDDYYEESYFTTRTYGEP [S3C]: the protein stability index was determined as 1.95.
On to YQVKGYNDDYYEESYFTTRTYGEP [S3V], for which the protein stability index is 1.95.
YQLKGYNDDYYEESYFTTRTYGEP [S3L]: the protein stability index was 2.17.
As to YQWKGYNDDYYEESYFTTRTYGEP [S3W], the protein stability index amounted to 1.72.
The figure for YQDKGYNDDYYEESYFTTRTYGEP [S3D] is 3.31; for YQIKGYNDDYYEESYFTTRTYGEP [S3I] it is 2.14.
With YQRKGYNDDYYEESYFTTRTYGEP [S3R] the figure was 2.75; with YQMKGYNDDYYEESYFTTRTYGEP [S3M], 2.38.
YQYKGYNDDYYEESYFTTRTYGEP [S3Y]: the protein stability index stood at 2.47.
Turning to YQPKGYNDDYYEESYFTTRTYGEP [S3P], the protein stability index came to 2.72.
Take YQGKGYNDDYYEESYFTTRTYGEP [S3G]: the protein stability index is 2.18.
Regarding YQNKGYNDDYYEESYFTTRTYGEP [S3N], the protein stability index was 2.45.
The figure for YQAKGYNDDYYEESYFTTRTYGEP [S3A] is 2.23.
As for YQEKGYNDDYYEESYFTTRTYGEP [S3E], the protein stability index is 3.25.
Regarding YQFKGYNDDYYEESYFTTRTYGEP [S3F], the protein stability index is 2.25.
As to YQQKGYNDDYYEESYFTTRTYGEP [S3Q], the protein stability index stood at 2.43.
Consider YQKKGYNDDYYEESYFTTRTYGEP [S3K], for which the protein stability index turned out to be 2.75.
The figure for YQHKGYNDDYYEESYFTTRTYGEP [S3H] is 2.42; for YQSKGYNMDYYEESYFTTRTYGEP [D8M] it is 3.87; for YQSKGYNGDYYEESYFTTRTYGEP [D8G] it is 1.65.
YQSKGYNLDYYEESYFTTRTYGEP [D8L]: the protein stability index came to 2.37.
On to YQSKGYNHDYYEESYFTTRTYGEP [D8H], for which the protein stability index came out at 1.96.
For YQSKGYNCDYYEESYFTTRTYGEP [D8C], the protein stability index was 2.62.
YQSKGYNEDYYEESYFTTRTYGEP [D8E]: the protein stability index amounted to 2.13.
As to YQSKGYNKDYYEESYFTTRTYGEP [D8K], the protein stability index was determined as 1.91.
Regarding YQSKGYNRDYYEESYFTTRTYGEP [D8R], the protein stability index was 1.8.
Regarding YQSKGYNTDYYEESYFTTRTYGEP [D8T], the protein stability index is 2.09.
The figure for YQSKGYNADYYEESYFTTRTYGEP [D8A] is 1.5.
YQSKGYNQDYYEESYFTTRTYGEP [D8Q]: the protein stability index came out at 1.67.
Regarding YQSKGYNYDYYEESYFTTRTYGEP [D8Y], the protein stability index is 1.72.
As to YQSKGYNSDYYEESYFTTRTYGEP [D8S], the protein stability index worked out at 1.92.
With YQSKGYNPDYYEESYFTTRTYGEP [D8P], the protein stability index turned out to be 2.36.
As to YQSKGYNFDYYEESYFTTRTYGEP [D8F], the protein stability index worked out at 2.13.
Regarding YQSKGYNNDYYEESYFTTRTYGEP [D8N], the protein stability index amounted to 1.82.
For the variant YQSKGYNWDYYEESYFTTRTYGEP [D8W], the protein stability index was 2.85.
As to YQSKGYNVDYYEESYFTTRTYGEP [D8V], the protein stability index stood at 2.47.
With YQSKGYNIDYYEESYFTTRTYGEP [D8I], the protein stability index is 2.05.
YQSKGYVDDYYEESYFTTRTYGEP [N7V]: the protein stability index worked out at 2.13.
Regarding YQSKGYGDDYYEESYFTTRTYGEP [N7G], the protein stability index was 2.13.
For YQSKGYYDDYYEESYFTTRTYGEP [N7Y], the protein stability index turned out to be 1.88.
Turning to YQSKGYSDDYYEESYFTTRTYGEP [N7S], the protein stability index was 2.47.
Regarding YQSKGYDDDYYEESYFTTRTYGEP [N7D], the protein stability index worked out at 2.62.
In the case of YQSKGYRDDYYEESYFTTRTYGEP [N7R], the protein stability index was 1.75.
Take YQSKGYKDDYYEESYFTTRTYGEP [N7K]: the protein stability index was determined as 1.94.
As for YQSKGYMDDYYEESYFTTRTYGEP [N7M], the protein stability index was 1.67.
For YQSKGYADDYYEESYFTTRTYGEP [N7A], the protein stability index is 2.25.
On to YQSKGYPDDYYEESYFTTRTYGEP [N7P], for which the protein stability index amounted to 2.17.
On to YQSKGYTDDYYEESYFTTRTYGEP [N7T], for which the protein stability index amounted to 2.14.
Take YQSKGYIDDYYEESYFTTRTYGEP [N7I]: the protein stability index was found to be 1.76.
Consider YQSKGYQDDYYEESYFTTRTYGEP [N7Q], for which the protein stability index was found to be 2.14.
For YQSKGYHDDYYEESYFTTRTYGEP [N7H], the protein stability index stood at 2.18.
The figure for YQSKGYLDDYYEESYFTTRTYGEP [N7L] is 1.71.
Turning to YQSKGYCDDYYEESYFTTRTYGEP [N7C], the protein stability index is 2.05.
As to YQSKGYFDDYYEESYFTTRTYGEP [N7F], the protein stability index amounted to 3.55.
As to YQSKGYWDDYYEESYFTTRTYGEP [N7W], the protein stability index is 3.23.
As for YQSKGYEDDYYEESYFTTRTYGEP [N7E], the protein stability index came out at 2.87.
With YQSEGYNDDYYEESYFTTRTYGEP [K4E] the figure was 3.46.
The figure for YQSTGYNDDYYEESYFTTRTYGEP [K4T] is 2.38; for YQSFGYNDDYYEESYFTTRTYGEP [K4F] it is 1.69; for YQSSGYNDDYYEESYFTTRTYGEP [K4S] it is 2.3.
As for YQSDGYNDDYYEESYFTTRTYGEP [K4D], the protein stability index is 3.33.
Consider YQSIGYNDDYYEESYFTTRTYGEP [K4I], for which the protein stability index was determined as 1.98.
On to YQSAGYNDDYYEESYFTTRTYGEP [K4A], for which the protein stability index is 2.36.
On to YQSGGYNDDYYEESYFTTRTYGEP [K4G], for which the protein stability index came to 2.12.
For the variant YQSHGYNDDYYEESYFTTRTYGEP [K4H], the protein stability index came out at 1.97.
The figure for YQSMGYNDDYYEESYFTTRTYGEP [K4M] is 2.32; for YQSPGYNDDYYEESYFTTRTYGEP [K4P] it is 2.5.
On to YQSRGYNDDYYEESYFTTRTYGEP [K4R], for which the protein stability index amounted to 2.44.
Take YQSLGYNDDYYEESYFTTRTYGEP [K4L]: the protein stability index was found to be 2.06.
Consider YQSVGYNDDYYEESYFTTRTYGEP [K4V], for which the protein stability index was 2.54.
With YQSQGYNDDYYEESYFTTRTYGEP [K4Q], the protein stability index is 2.39.
As for YQSWGYNDDYYEESYFTTRTYGEP [K4W], the protein stability index was 2.39.
With YQSCGYNDDYYEESYFTTRTYGEP [K4C], the protein stability index was 2.63.
For YQSNGYNDDYYEESYFTTRTYGEP [K4N], the protein stability index is 2.36.
For YQSYGYNDDYYEESYFTTRTYGEP [K4Y], the protein stability index came out at 2.06.
With YQSKGYNDLYYEESYFTTRTYGEP [D9L], the protein stability index amounted to 2.01.
With YQSKGYNDVYYEESYFTTRTYGEP [D9V] the figure was 1.85.
Take YQSKGYNDPYYEESYFTTRTYGEP [D9P]: the protein stability index came out at 1.71.
With YQSKGYNDAYYEESYFTTRTYGEP [D9A] the figure was 1.44; with YQSKGYNDGYYEESYFTTRTYGEP [D9G], 2.7.
With YQSKGYNDCYYEESYFTTRTYGEP [D9C], the protein stability index was found to be 1.18.
As to YQSKGYNDQYYEESYFTTRTYGEP [D9Q], the protein stability index stood at 1.93.
YQSKGYNDMYYEESYFTTRTYGEP [D9M]: the protein stability index was determined as 1.96.
With YQSKGYNDTYYEESYFTTRTYGEP [D9T], the protein stability index amounted to 1.79.
The figure for YQSKGYNDHYYEESYFTTRTYGEP [D9H] is 1.89.
With YQSKGYNDRYYEESYFTTRTYGEP [D9R] the figure was 1.96; with YQSKGYNDKYYEESYFTTRTYGEP [D9K], 1.52.
In the case of YQSKGYNDYYYEESYFTTRTYGEP [D9Y], the protein stability index worked out at 1.79.
Take YQSKGYNDSYYEESYFTTRTYGEP [D9S]: the protein stability index came to 1.57.
The figure for YQSKGYNDFYYEESYFTTRTYGEP [D9F] is 2.44.
Regarding YQSKGYNDNYYEESYFTTRTYGEP [D9N], the protein stability index was 1.74.
For the variant YQSKGYNDWYYEESYFTTRTYGEP [D9W], the protein stability index turned out to be 2.68.
For YQSKGYNDIYYEESYFTTRTYGEP [D9I], the protein stability index came to 1.57.
Turning to YQSKGYNDEYYEESYFTTRTYGEP [D9E], the protein stability index turned out to be 2.06.
